This note sets out measurements from the supplement of paper PMC9112550, “Optimization of the antimicrobial peptide Bac7 by deep mutational scanning” (BMC Biology, 2022).

The series concerns Escherichia coli TOP10. The series is described as follows: shrunken log2 fold change of peptide-encoding DNA abundance (4.5 h post-induction vs induction); higher = less antimicrobial activity (less host growth inhibition). The note with it: time post-induction: 4.5 h; library: site-saturation at positions 5, 18, 19, 20.
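Further: peptides expressed intracellularly from a pBAD plasmid library in pooled LB shake-flask culture, induced with 0.3% L-arabinose, DNA abundance read by NGS, three biological replicates, DESeq2 with apeglm shrinkage.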

In the case of RRIRDRPPRLPRPRPRPYGAPRP, the “shrunken log2 fold change” value worked out at 0.00308.

With RRIRPRPPRLPRPRPRPVGLPRP, the “shrunken log2 fold change” value stood at 0.478.

In the case of RRIRPRPPRLPRPRPRPYDKPRP, the “shrunken log2 fold change” value was -0.512.

With RRIRDRPPRLPRPRPRPCSDPRP, the “shrunken log2 fold change” value worked out at 0.0293.

As to RRIRSRPPRLPRPRPRPIPQPRP, the “shrunken log2 fold change” value is -0.402.

On to RRIRVRPPRLPRPRPRPQTMPRP, for which the “shrunken log2 fold change” value is -0.689.

Take RRIRERPPRLPRPRPRPFSEPRP: the “shrunken log2 fold change” value is 0.0188.

As for RRIRERPPRLPRPRPRPHSYPRP, the “shrunken log2 fold change” value was -0.0459.

On to RRIRQRPPRLPRPRPRPNNGPRP, for which the “shrunken log2 fold change” value was -0.361.

Regarding RRIRHRPPRLPRPRPRPWRPPRP, the “shrunken log2 fold change” value was 0.29.

For the sequence RRIRDRPPRLPRPRPRPAGYPRP, the “shrunken log2 fold change” value was found to be 0.528.

For the sequence RRIRHRPPRLPRPRPRPIWNPRP, the “shrunken log2 fold change” value was -0.892.

In the case of RRIRYRPPRLPRPRPRPRVMPRP, the “shrunken log2 fold change” value is -0.155.

Consider RRIRRRPPRLPRPRPRPDKKPRP, for which the “shrunken log2 fold change” value is 0.0135.

As to RRIRSRPPRLPRPRPRPIIVPRP, the “shrunken log2 fold change” value was found to be 0.0771.

Regarding RRIRNRPPRLPRPRPRPGAVPRP, the “shrunken log2 fold change” value came to 0.248.

RRIRMRPPRLPRPRPRPQNVPRP: the “shrunken log2 fold change” value is -0.0183.

Take RRIRSRPPRLPRPRPRPQAIPRP: the “shrunken log2 fold change” value worked out at 0.0296.

As to RRIRGRPPRLPRPRPRPPKLPRP, the “shrunken log2 fold change” value amounted to 0.524.

For RRIRERPPRLPRPRPRPIKWPRP, the “shrunken log2 fold change” value was -0.0383.

Consider RRIRMRPPRLPRPRPRPYFAPRP, for which the “shrunken log2 fold change” value is -0.296.

As for RRIRDRPPRLPRPRPRPDWLPRP, the “shrunken log2 fold change” value was determined as 0.34.

As to RRIRRRPPRLPRPRPRPWHMPRP, the “shrunken log2 fold change” value amounted to 0.0729.

As to RRIRVRPPRLPRPRPRPCQFPRP, the “shrunken log2 fold change” value worked out at 0.143.

Regarding RRIRGRPPRLPRPRPRPSFSPRP, the “shrunken log2 fold change” value was 0.154.

In the case of RRIRWRPPRLPRPRPRPTYFPRP, the “shrunken log2 fold change” value is -0.359.

Take RRIRPRPPRLPRPRPRPTERPRP: the “shrunken log2 fold change” value was determined as 0.649.

On to RRIRERPPRLPRPRPRPLFWPRP, for which the “shrunken log2 fold change” value was found to be 0.219.

Regarding RRIRFRPPRLPRPRPRPNIGPRP, the “shrunken log2 fold change” value was -0.0107.

RRIRIRPPRLPRPRPRPNYCPRP: the “shrunken log2 fold change” value is -0.139.

For RRIRERPPRLPRPRPRPLTGPRP, the “shrunken log2 fold change” value is -0.0199.

On to RRIRRRPPRLPRPRPRPWVHPRP, for which the “shrunken log2 fold change” value was 0.000557.

With RRIRLRPPRLPRPRPRPWVIPRP, the “shrunken log2 fold change” value is -0.0649.

Consider RRIRDRPPRLPRPRPRPHTMPRP, for which the “shrunken log2 fold change” value was -0.863.

For RRIRERPPRLPRPRPRPVYDPRP, the “shrunken log2 fold change” value was -0.0514.

For RRIRDRPPRLPRPRPRPWGKPRP, the “shrunken log2 fold change” value was -0.194.

Turning to RRIRFRPPRLPRPRPRPKPRPRP, the “shrunken log2 fold change” value was 0.886.

Take RRIRCRPPRLPRPRPRPEQKPRP: the “shrunken log2 fold change” value was -0.0751.

Take RRIRDRPPRLPRPRPRPRCPPRP: the “shrunken log2 fold change” value stood at 0.131.

On to RRIRLRPPRLPRPRPRPKLYPRP, for which the “shrunken log2 fold change” value turned out to be 0.0148.

With RRIRGRPPRLPRPRPRPLNLPRP, the “shrunken log2 fold change” value was -0.018.

Take RRIRCRPPRLPRPRPRPVWKPRP: the “shrunken log2 fold change” value is 0.159.

In the case of RRIRVRPPRLPRPRPRPEACPRP, the “shrunken log2 fold change” value was found to be 0.11.

Turning to RRIRIRPPRLPRPRPRPNDIPRP, the “shrunken log2 fold change” value is -1.11.

As to RRIRPRPPRLPRPRPRPIAKPRP, the “shrunken log2 fold change” value was determined as 0.0454.

As for RRIRQRPPRLPRPRPRPEWAPRP, the “shrunken log2 fold change” value amounted to 0.0739.

Consider RRIRLRPPRLPRPRPRPISPPRP, for which the “shrunken log2 fold change” value was -0.333.

For the sequence RRIRHRPPRLPRPRPRPITWPRP, the “shrunken log2 fold change” value is -0.149.

In the case of RRIRNRPPRLPRPRPRPLCHPRP, the “shrunken log2 fold change” value is -0.359.

For RRIRDRPPRLPRPRPRPPMFPRP, the “shrunken log2 fold change” value came to 0.216.

Turning to RRIRCRPPRLPRPRPRPNTPPRP, the “shrunken log2 fold change” value was -0.345.

As for RRIRLRPPRLPRPRPRPLHFPRP, the “shrunken log2 fold change” value is -0.197.

For the sequence RRIRCRPPRLPRPRPRPSFCPRP, the “shrunken log2 fold change” value is -0.559.

As to RRIRCRPPRLPRPRPRPEMNPRP, the “shrunken log2 fold change” value is -0.036.

For RRIRTRPPRLPRPRPRPRKRPRP, the “shrunken log2 fold change” value is 0.152.

Turning to RRIRTRPPRLPRPRPRPFKLPRP, the “shrunken log2 fold change” value was -0.0476.

Take RRIRRRPPRLPRPRPRPVEYPRP: the “shrunken log2 fold change” value is -0.00275.

On to RRIRSRPPRLPRPRPRPILEPRP, for which the “shrunken log2 fold change” value is 0.0161.

For the sequence RRIRLRPPRLPRPRPRPGSFPRP, the “shrunken log2 fold change” value was determined as 0.236.

As for RRIRARPPRLPRPRPRPHMDPRP, the “shrunken log2 fold change” value worked out at 0.281.

As for RRIRARPPRLPRPRPRPCWAPRP, the “shrunken log2 fold change” value came out at 0.119.

As to RRIRSRPPRLPRPRPRPRTEPRP, the “shrunken log2 fold change” value worked out at 0.00553.

Consider RRIRYRPPRLPRPRPRPMLMPRP, for which the “shrunken log2 fold change” value is -0.13.

Take RRIRCRPPRLPRPRPRPIPKPRP: the “shrunken log2 fold change” value was 0.326.

With RRIRWRPPRLPRPRPRPTNKPRP, the “shrunken log2 fold change” value is -0.195.

As for RRIRNRPPRLPRPRPRPTYIPRP, the “shrunken log2 fold change” value is -0.603.

On to RRIRFRPPRLPRPRPRPQHYPRP, for which the “shrunken log2 fold change” value was -1.01.

Take RRIRSRPPRLPRPRPRPHYYPRP: the “shrunken log2 fold change” value was -0.581.

As to RRIRGRPPRLPRPRPRPALSPRP, the “shrunken log2 fold change” value stood at 1.31.

Turning to RRIRTRPPRLPRPRPRPLSEPRP, the “shrunken log2 fold change” value is -0.127.

Turning to RRIRQRPPRLPRPRPRPHGWPRP, the “shrunken log2 fold change” value is -0.0188.

On to RRIRTRPPRLPRPRPRPHPHPRP, for which the “shrunken log2 fold change” value came to 0.0583.

With RRIRFRPPRLPRPRPRPWAMPRP, the “shrunken log2 fold change” value is -0.0609.

Consider RRIRHRPPRLPRPRPRPQGNPRP, for which the “shrunken log2 fold change” value was -0.168.

In the case of RRIRGRPPRLPRPRPRPRSLPRP, the “shrunken log2 fold change” value turned out to be 0.778.

Turning to RRIRIRPPRLPRPRPRPGHKPRP, the “shrunken log2 fold change” value is -0.363.

With RRIRYRPPRLPRPRPRPSMSPRP, the “shrunken log2 fold change” value is -1.19.

With RRIRKRPPRLPRPRPRPNDFPRP, the “shrunken log2 fold change” value was -0.0772.

Consider RRIRNRPPRLPRPRPRPKDNPRP, for which the “shrunken log2 fold change” value was -0.484.

For the sequence RRIRMRPPRLPRPRPRPWPYPRP, the “shrunken log2 fold change” value came to 0.213.

Consider RRIRWRPPRLPRPRPRPFFKPRP, for which the “shrunken log2 fold change” value is -0.0879.

As for RRIRARPPRLPRPRPRPCRIPRP, the “shrunken log2 fold change” value was -0.0344.

For the sequence RRIRRRPPRLPRPRPRPEGWPRP, the “shrunken log2 fold change” value came out at 3.17.

On to RRIRVRPPRLPRPRPRPNMHPRP, for which the “shrunken log2 fold change” value was -0.332.

Take RRIRSRPPRLPRPRPRPVHPPRP: the “shrunken log2 fold change” value came to 0.245.

As to RRIRDRPPRLPRPRPRPNALPRP, the “shrunken log2 fold change” value was -0.0157.

Consider RRIRYRPPRLPRPRPRPCGEPRP, for which the “shrunken log2 fold change” value was -0.0504.

Consider RRIRERPPRLPRPRPRPGYRPRP, for which the “shrunken log2 fold change” value is -0.408.

Consider RRIRNRPPRLPRPRPRPKHRPRP, for which the “shrunken log2 fold change” value is 0.0319.

Turning to RRIRMRPPRLPRPRPRPMDQPRP, the “shrunken log2 fold change” value is -0.0516.

Take RRIRGRPPRLPRPRPRPTMKPRP: the “shrunken log2 fold change” value was 0.757.
